Results reported in patent US20040052799A1, “Nucleic acid and amino acid sequences relating to Helicobacter pylori for diagnostics and therapeutics” (Astra Aktiebolag, priority 1996, published 2004).
Marks after values point to notes of the source that are not given here.

Columns and labels:
[1] = test system: CD4+ or CD8+ T cells and IgA containing (IgACC) plasma cells in gastric tissue; test: Local gastric immune response to immunization, immunostaining of gastric cryosections; assay type: in vivo, C57BL/6 mice
Excerpt: Longitudinal sections of gastric tissues from the esophageal to the duodenal junction were embedded in OCT embedding compound, frozen in liquid nitrogen, and cryosections immunostained with monoclonal antibodies recognizing CD4^+ or CD8^+T cells or with antisera against mouse IgA for identification of IgA containing (IgACC) plasma cells (Pappo et al., Infect. Immun. 63:1246-1252, 1995). The degree of local gastric immune response was expressed quantitatively as the number of CD4^+, CD8^+ or IgACC cells per mm^2 of gastric region examined.
(§1) Protective activity of purified recombinant H. pylori vac36 (SEQ ID NO: 5146) antigen The ability of purified recombinant vac36 (SEQ ID NO: 5146) antigen derived from H. pylori to interfere with the establishment of an H. pylori infection was examined in mice. […]. The mice were challenged 2 weeks later on 3 consecutive days by oral administration of 10^8 H. pylori organisms. The experiment was terminated 2 weeks post-challenge, and the H. pylori infection level assessed by bacterial colony counts and by quantitative urease assays.

H. pylori = test: Protective oral immunization and challenge with live H. pylori, quantitative urease assay and bacterial colony counts of gastric tissue; assay type: in vivo, C57BL/6 mice
Experimental: A murine model of H. pylori infection was produced by infection of C57BL/6 mice with H. pylori Sydney strain SS1 and was used to assess the efficacy of recombinant H. pylori vac36. […] Dose-response studies have shown 100% infection rates of inbred C57BL/6 and Balb/C mice at 8 weeks post-challenge with a single inoculation of […] organisms.
The presence of H. pyloriorganisms in gastric tissue was determined by culture of gastric tissue and by a quantitative urease assay. In the latter method, a longitudinal segment of antrum, representing approximately ¼ of the total antral region was placed in 1 ml of urea broth. After 4 hr, the extent of color change resulting from urea hydrolysis and increased pH was quantiated by spectrophotometric measurement of A550 (Fox et al., Immunol. 88:400-406, 1996). The assay sensitivity is ˜10^3 H. pylori organisms. A positive (H. pylori-infected) gastric tissue was defined as that sample showing 2 standard deviations above the mean A550 value derived from a group of unchallenged uninfected age-matched control mice.
as §1

H. pylori (strain AH244) = assay type: in vivo; details: BALB/c mice infected with strain AH244, 100 μg antigen + 10 μg CT orally, compared to control; FIGS. 3 and 4
[2] = biological target: T1, H. pylori peptidyl-propyl cis-trans isomerase (PPIase) (Helicobacter pylori, UniProt Q9ZJH5); test: PPIase enzymatic assay, α-chymotrypsin coupled, succinyl-Ala-Ala-Pro-Phe-p-nitroanilide; assay type: biochemical
T1 construct: His-Tag (N); made in house; host or cells: E. coli BL21(DE3)
T1 sequence (Q9ZJH5 whole entry, looked up): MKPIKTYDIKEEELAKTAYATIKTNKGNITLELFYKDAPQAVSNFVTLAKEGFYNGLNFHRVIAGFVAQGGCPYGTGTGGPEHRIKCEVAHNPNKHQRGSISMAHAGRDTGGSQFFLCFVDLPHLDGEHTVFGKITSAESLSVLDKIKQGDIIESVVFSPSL
Excerpt: The assay is essentially as described by Fisher (Fischer, G., et. al. (1984) Biomed. Biochim. Acta 43:1101-1111). The assay measures the cis-trans isomerization of the Ala-Pro bond in the test peptide N-succinyl-Ala-Ala-Pro-Phe-p-nitroanilide (Sigma # S-7388, lot # 84H5805). The assay is coupled with α-chymotrypsin, where the ability of the protease to cleave the test peptide occurs only when the Ala-Pro bond is in trans. The conversion of the test peptide to the trans isomer in the assay is followed at 390 nm on a Beckman Model DU-650 spectophotometer. The data are collected every second with an average scanning of time of 0.5 second. Assays are carried out in 35 mM Hepes, pH 8.0, in a final volume of 400 ul, with 10 μM α-chymotrypsin (type 1-5 from bovine Pancreas, Sigma # C-7762, lot 23H7020) and 10 nM PPIase. To initiate the reaction, 10 μl of the substrate (2 mM N-Succinyl-Ala-Ala-Pro-Phe-p-nitroanilide in DMSO) is added to 390 μl of reaction mixture at room temperature.
The PPIase activity was assayed using the chromogenic tetrapeptide substrate succinyl-Ala-Ala-Pro-Phe-p-nitroanilide. An initial velocity of 4.9 μmole/min/mg protein was measured with the purified enzyme (FIG. 5). This corresponds to a kcat of 1.6 sec^−1 which is similar to the one obtained for the E. coli PPIase (Liu, J. and Walsh, C. T. (1990) Proc. Natl. Acad. Sci. USA 87:4028-4032) and the one from porcine kidney (Fischer, G. (1989) Nature 337:476-478).
The recombinant protein has a high catalytic efficiency of 2.06×10^9 M^−1 s^−1 when the assay is measured at 25° C. These values are one to two orders of magnitude higher than that observed for other characterized PPIases. However, in those studies, the ppiase assay was conducted at 10° C., which may account for the discrepency.

[3] = mean number of cells/mm^2 of gastric region ± SEM, immunized mice upon challenge with H. pylori

B1: vac36: recombinant H. pylori outer membrane protein with terminal phenylalanine residue and C-terminal tyrosine cluster, aa SEQ ID NO: 5146, nt SEQ ID NO: 384 (protein, listed as Helicobacter pylori)
chain: MKQNLKPFKMIKENLMTQSQKVRFLAPLSLALSLSFNPVGAEEDGGFMTFGYELGQVVQQVKNPGKIKAEELAGLLNSTTTNNTNINIAGTGGNVAGTLGNLFMNQLGNLIDLYPTLKTNNLHQCGSTNSGNGATAAAATNNSPCFQGNLALYNEMVDSIKTLSQNISKNIFQGDNNTTSANLSNQLSELNTASVYLTYMNSFLNANNQAGGIFQNNTNQAYENGVTAQQIAYVLKQASITMGPSGDSGAAGAFLDAALAQHVFNSANAGNDLSAKEFTSLVQNIVNNSQNALTLANNANISNSTGYQVSYGGNIDQARSTQLLNNTTNTLAKVTALNNELKANPWLGNFAAGNSSQVNAFNGFITKIGYKQFFGENKNVGLRYYGFFSYNGAGVGNGPTYNQVNLLTYGVGTDVLYNVFSRSFGSRSLNAGFFGGIQLAGDTYISTLRNSPQLASRPTATKFQFLFDVGLRMNFGILKKDLKSHNQHSIEIGVQIPTIYNTYYKAGGAEVKYFRPYSVYWVYGYAF
modifications: misc_feature (B) LOCATION 1...527; hypothetical: YES
- numbers of CD4+ T cells and of IgACC recruited in the gastric tissues ([1]; compared with unimmunized H. pylori-infected mice): Greater numbers
- CD4+ antrum [1, 3]: 31 ± 8 cells/mm^2
- CD4+ cardia [1, 3]: 33 ± 9^a cells/mm^2
- CD4+ corpus [1, 3]: 54 ± 8 cells/mm^2
- CD8+ antrum [1, 3]: 1 ± 1 cells/mm^2
- CD8+ cardia [1, 3]: 3 ± 2 cells/mm^2
- CD8+ corpus [1, 3]: 0 cells/mm^2
- IgACC antrum [1, 3]: 67 ± 13 cells/mm^2
- IgACC cardia [1, 3]: 24 ± 12 cells/mm^2
- IgACC corpus [1, 3]: 79 ± 16 cells/mm^2
- level of colonization by H. pylori, as assessed by gastric urease activity and bacterial count assays (H. pylori; C57BL/6 mice immunized orally, challenged with live H. pylori): significantly lower level of colonization
- H. pylori burden (H. pylori; bacterial counts in gastric tissue, mean ± SEM, oral immunization 4 times weekly with 10 μg CT, challenge with 10^8 H. pylori, 2 weeks post-challenge): 55,800 ± 12,599 colony forming units
- Urease Activity (H. pylori; mean A550 ± SEM of duplicate antral samples, n = 10 mice/group, oral immunization 4 times weekly with 10 μg CT, challenge with 10^8 H. pylori, 2 weeks post-challenge): 0.199 ± 0.080 A550

B2: SEQ ID NO: 880: H. pylori antigen of the therapeutic immunization study; number does not match the antigen list of Tables 6 and 7 (protein, listed as Helicobacter pylori)
chain: YPCHKRFSLTHSQKESPQSNSPKGVKITLILVRKFKTPSINTLSNKIAIIITCCFLSESVKLLGYSGLKNFRILRMLETSSHFLKSFRLKRYIGFLLISLALLITPFVRIDGAHLFLISFEHKQLHFLGKNL
modifications: double-stranded, circular; misc_feature (B) LOCATION 1...396; hypothetical: NO; anti-sense: NO
- degree of colonization of the antrum (H. pylori (strain AH244)): lower

B3: H. pylori PPIase: recombinant PPI from H. pylori expressed in E. coli using pET-28b (protein)
chain: FIAIIEHLNDKSLSQRFMMKPIKTYDIKEEELAKTAYATIKTNKGNITLELFYKDAPQAVSNFVTLAKEGFYNGLNFHRVIAGFVAQGGCPYGTGTGGPEHRIKCEVAHNPNKHQRGSISMAHAGRDTGGSQFFLCFVDLPHLDGEHTVFGKITSAESLSVLDKIKQGDIIESVVFSPSL
modifications: left off: small tags and cut ends
notes: recombinant PPI from H. pylori expressed in E. coli using pET-28b
- catalytic efficiency ([2]; assay measured at 25° C.): 2.06e+09 M⁻¹ s⁻¹
- kcat ([2]; purified recombinant enzyme): 1.6 s⁻¹
- initial velocity ([2]; purified recombinant enzyme, substrate succinyl-Ala-Ala-Pro-Phe-p-nitroanilide): 4.9 μmole/min/mg protein

B4: SEQ ID NO: 677: H. pylori antigen of the therapeutic immunization study; number does not match the antigen list of Tables 6 and 7 (protein, listed as Helicobacter pylori)
chain: SDCMALLEIIHYPSKILRTISKEVVSFDSKLHQQLDDMHETMIASEGIGLAAIQVGLPLRMLIINLPQEDGVQHKEDCLEIINPKWIETKGSIMYREGCLSVPGFYEEVERFEKVKIEYQNRFAEVKILEASELLAVAIQHEIDHLNGVLFVDKLSILKRKKFEKELKELQKKQKHK
modifications: double-stranded, circular; misc_feature (B) LOCATION 1...531; hypothetical: NO; anti-sense: NO
- reduction and/or eradication of the H. pylori infection (therapeutic immunization effect) (H. pylori (strain AH244)): did not differ from control

B5: SEQ ID NO: 465: H. pylori antigen of the therapeutic immunization study; number does not match the antigen list of Tables 6 and 7 (protein, listed as Helicobacter pylori)
chain: MGCSFIFKKVRVYSKMLVALGLSSVLIGCAMNPSAETKKPNDAKNQQPVQTHERMTTSSEHVTPLDFNYPVHIVQAPQNHHVVGILMPRIQVSDNLKPYIDKFQDALINQIQTIFEKRGYQVLRFQDEKALNVQDKKKIFSVLDLKGWVGILEDLKMNLKDSHSPI
modifications: double-stranded, circular; misc_feature (B) LOCATION 1...498; hypothetical: NO; anti-sense: NO
- reduction and/or eradication of the H. pylori infection (therapeutic immunization effect) (H. pylori (strain AH244)): did not differ from control
